These binders were tested against T1, cynomolgus monkey FcγRIIIaS extracellular domain, C-terminal His-tag (cynomolgus monkey, UniProt A3RFZ7 21-206 (rhesus entry)) (assay: SPR (Biacore), KD of SG1 / KD of variant;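 note: relative to parent M103205H795-SG1 carrying the SG1 human heavy chain constant region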).
T1 construct: also called cyno FcγRIIIaS; cynoFcγRIIIaS; not shown: His-tag added to C-terminus
T1 sequence (A3RFZ7 21-206): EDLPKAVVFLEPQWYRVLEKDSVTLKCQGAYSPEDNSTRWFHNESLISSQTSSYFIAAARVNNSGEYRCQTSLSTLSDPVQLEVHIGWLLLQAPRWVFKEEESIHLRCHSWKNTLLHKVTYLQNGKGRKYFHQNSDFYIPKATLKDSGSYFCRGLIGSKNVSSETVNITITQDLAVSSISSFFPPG

Binder	KD fold (SG1 = 1) [fold]
MS_M103205H795-SG1/M103202L889-SK1 (antibody, human IgG1, kappa, Parent antibody; also called MS1032LO06-SG1) heavy: not shown light: DIVMTQSPATLSLSPGERATLSCTSSQSVYHANWLSWFQQKPGQPPKLLIYWASTLAYGVPSRFSGSGSGTDFTLTISSLQPEDAATYYCAGGYGGGRYAFGQGTKVEIKRTVAAPSVFIFPPSDEQLKSGTASVVCLLNNFYPREAKVQWKVDNALQSGNSQESVTEQDSKDSTYSLSSTLTLSKADYEKHKVYACEVTHQGLSSPVTKSFNRGEC	1
M103205H795-MY143/M103202L889-SK1 (antibody, human IgG1, kappa) heavy: QVTLKESGPVLVKPTETLTLTCTVSGIDLSHDDISWVRQAPGKGLEWVGIISYAGSTYYASWAKGRLTISKDTSKNQVVLTMTNMDPVDTATYYCARGVPAYSHGGDLWGQGTLVTVSSASTKGPSVFPLAPSSKSTSGGTAALGCLVKDYFPEPVTVSWNSGALTSGVHTFPAVLQSSGLYSLSSVVTVPSSSLGTQTYICNVNHKPSNTKVDKKVEPKSCDKTHTCPPCPAPELLSGPSVFLFPPKPKDTLMISRTPEVTCVVVDVSEEDPEVKFNWYVDGVEVHNAKTKPREEQYNSTYRVVSVLTVLHQDWLNGKEYKCKVSNKALPAPIEKTISKAKGQPREPQVYTLPPSREEMTKNQVSLTCLVKGFYPSDIAVEWESNGQPENNYKTTPMVLDSDGSFFLYSKLTVDKSRWQQGNVFSCSVMHEALHNHYTQKSLSLSP light: DIVMTQSPATLSLSPGERATLSCTSSQSVYHANWLSWFQQKPGQPPKLLIYWASTLAYGVPSRFSGSGSGTDFTLTISSLQPEDAATYYCAGGYGGGRYAFGQGTKVEIKRTVAAPSVFIFPPSDEQLKSGTASVVCLLNNFYPREAKVQWKVDNALQSGNSQESVTEQDSKDSTYSLSSTLTLSKADYEKHKVYACEVTHQGLSSPVTKSFNRGEC	1.29
M103205H795-MY229/M103202L889-SK1 (antibody, human IgG1, kappa) heavy: QVTLKESGPVLVKPTETLTLTCTVSGIDLSHDDISWVRQAPGKGLEWVGIISYAGSTYYASWAKGRLTISKDTSKNQVVLTMTNMDPVDTATYYCARGVPAYSHGGDLWGQGTLVTVSSASTKGPSVFPLAPSSKSTSGGTAALGCLVKDYFPEPVTVSWNSGALTSGVHTFPAVLQSSGLYSLSSVVTVPSSSLGTQTYICNVNHKPSNTKVDKKVEPKSCDKTHTCPPCPAPELLGYPSVFLFPPKPKDTLMISRTPEVTCVVVDVSDEDPEVKFNWYVDGVEVHNAKTKPREELYNSTYRVVSVLTVLHQDWLNGKEYKCKVSNKALPKPIEKTISKAKGQPREPQVYTLPPSREEMTKNQVSLTCLVKGFYPSDIAVEWESNGQPENNYKTTPKVLDSDGSFFLYSKLTVDKSRWQQGNVFSCSVMHEALHNHYTQKSLSLSP light: DIVMTQSPATLSLSPGERATLSCTSSQSVYHANWLSWFQQKPGQPPKLLIYWASTLAYGVPSRFSGSGSGTDFTLTISSLQPEDAATYYCAGGYGGGRYAFGQGTKVEIKRTVAAPSVFIFPPSDEQLKSGTASVVCLLNNFYPREAKVQWKVDNALQSGNSQESVTEQDSKDSTYSLSSTLTLSKADYEKHKVYACEVTHQGLSSPVTKSFNRGEC	0.09
M103205H795-MY142/M103202L889-SK1 (antibody, human IgG1, kappa) heavy: QVTLKESGPVLVKPTETLTLTCTVSGIDLSHDDISWVRQAPGKGLEWVGIISYAGSTYYASWAKGRLTISKDTSKNQVVLTMTNMDPVDTATYYCARGVPAYSHGGDLWGQGTLVTVSSASTKGPSVFPLAPSSKSTSGGTAALGCLVKDYFPEPVTVSWNSGALTSGVHTFPAVLQSSGLYSLSSVVTVPSSSLGTQTYICNVNHKPSNTKVDKKVEPKSCDKTHTCPPCPAPELLEGPSVFLFPPKPKDTLMISRTPEVTCVVVDVSEEDPEVKFNWYVDGVEVHNAKTKPREEQYNSTYRVVSVLTVLHQDWLNGKEYKCKVSNKALPAPIEKTISKAKGQPREPQVYTLPPSREEMTKNQVSLTCLVKGFYPSDIAVEWESNGQPENNYKTTPMVLDSDGSFFLYSKLTVDKSRWQQGNVFSCSVMHEALHNHYTQKSLSLSP light: DIVMTQSPATLSLSPGERATLSCTSSQSVYHANWLSWFQQKPGQPPKLLIYWASTLAYGVPSRFSGSGSGTDFTLTISSLQPEDAATYYCAGGYGGGRYAFGQGTKVEIKRTVAAPSVFIFPPSDEQLKSGTASVVCLLNNFYPREAKVQWKVDNALQSGNSQESVTEQDSKDSTYSLSSTLTLSKADYEKHKVYACEVTHQGLSSPVTKSFNRGEC	2.57
M103205H795-MY219/M103202L889-SK1 (antibody, human IgG1, kappa) heavy: QVTLKESGPVLVKPTETLTLTCTVSGIDLSHDDISWVRQAPGKGLEWVGIISYAGSTYYASWAKGRLTISKDTSKNQVVLTMTNMDPVDTATYYCARGVPAYSHGGDLWGQGTLVTVSSASTKGPSVFPLAPSSKSTSGGTAALGCLVKDYFPEPVTVSWNSGALTSGVHTFPAVLQSSGLYSLSSVVTVPSSSLGTQTYICNVNHKPSNTKVDKKVEPKSCDKTHTCPPCPAPELLGYPSVFLFPPKPKDTLMISRTPEVTCVVVDVSDEDPEVKFNWYVDGVEVHNAKTKPREEQYNSTYRVVSVLTVLHQDWLNGKEYKCKVSNKALPKPIEKTISKAKGQPREPQVYTLPPSREEMTKNQVSLTCLVKGFYPSDIAVEWESNGQPENNYKTTPPVLDSDGSFFLYSKLTVDKSRWQQGNVFSCSVMHEALHNHYTQKSLSLSP light: DIVMTQSPATLSLSPGERATLSCTSSQSVYHANWLSWFQQKPGQPPKLLIYWASTLAYGVPSRFSGSGSGTDFTLTISSLQPEDAATYYCAGGYGGGRYAFGQGTKVEIKRTVAAPSVFIFPPSDEQLKSGTASVVCLLNNFYPREAKVQWKVDNALQSGNSQESVTEQDSKDSTYSLSSTLTLSKADYEKHKVYACEVTHQGLSSPVTKSFNRGEC	0.06

Results, then the binder that gave them:

KD fold (SG1 = 1) [fold]	Binder
0.16	M103205H795-MY209/M103202L889-SK1 (antibody, human IgG1, kappa) heavy: QVTLKESGPVLVKPTETLTLTCTVSGIDLSHDDISWVRQAPGKGLEWVGIISYAGSTYYASWAKGRLTISKDTSKNQVVLTMTNMDPVDTATYYCARGVPAYSHGGDLWGQGTLVTVSSASTKGPSVFPLAPSSKSTSGGTAALGCLVKDYFPEPVTVSWNSGALTSGVHTFPAVLQSSGLYSLSSVVTVPSSSLGTQTYICNVNHKPSNTKVDKKVEPKSCDKTHTCPPCPAPELLNGPSVFLFPPKPKDTLMISRTPEVTCVVVDVSDEDPEVKFNWYVDGVEVHNAKTKPREELYNSTYRVVSVLTVLHQDWLNGKEYKCKVSNTALPKPIEKTISKAKGQPREPQVYTLPPSREEMTKNQVSLTCLVKGFYPSDIAVEWESNGQPENNYKTTPPVLDSDGSFFLYSKLTVDKSRWQQGNVFSCSVMHEALHNHYTQKSLSLSP light: DIVMTQSPATLSLSPGERATLSCTSSQSVYHANWLSWFQQKPGQPPKLLIYWASTLAYGVPSRFSGSGSGTDFTLTISSLQPEDAATYYCAGGYGGGRYAFGQGTKVEIKRTVAAPSVFIFPPSDEQLKSGTASVVCLLNNFYPREAKVQWKVDNALQSGNSQESVTEQDSKDSTYSLSSTLTLSKADYEKHKVYACEVTHQGLSSPVTKSFNRGEC
0.19	M103205H795-MY213/M103202L889-SK1 (antibody, human IgG1, kappa) heavy: QVTLKESGPVLVKPTETLTLTCTVSGIDLSHDDISWVRQAPGKGLEWVGIISYAGSTYYASWAKGRLTISKDTSKNQVVLTMTNMDPVDTATYYCARGVPAYSHGGDLWGQGTLVTVSSASTKGPSVFPLAPSSKSTSGGTAALGCLVKDYFPEPVTVSWNSGALTSGVHTFPAVLQSSGLYSLSSVVTVPSSSLGTQTYICNVNHKPSNTKVDKKVEPKSCDKTHTCPPCPAPELLNGPSVFLFPPKPKDTLMISRTPEVTCVVVDVSDEDPEVKFNWYVDGVEVHNAKTKPREEQYNSTYRVVSVLTVLHQDWLNGKEYKCKVSNKALPKPIEKTISKAKGQPREPQVYTLPPSREEMTKNQVSLTCLVKGFYPSDIAVEWESNGQPENNYKTTPKVLDSDGSFFLYSKLTVDKSRWQQGNVFSCSVMHEALHNHYTQKSLSLSP light: DIVMTQSPATLSLSPGERATLSCTSSQSVYHANWLSWFQQKPGQPPKLLIYWASTLAYGVPSRFSGSGSGTDFTLTISSLQPEDAATYYCAGGYGGGRYAFGQGTKVEIKRTVAAPSVFIFPPSDEQLKSGTASVVCLLNNFYPREAKVQWKVDNALQSGNSQESVTEQDSKDSTYSLSSTLTLSKADYEKHKVYACEVTHQGLSSPVTKSFNRGEC
0.09	M103205H795-MY227/M103202L889-SK1 (antibody, human IgG1, kappa) heavy: QVTLKESGPVLVKPTETLTLTCTVSGIDLSHDDISWVRQAPGKGLEWVGIISYAGSTYYASWAKGRLTISKDTSKNQVVLTMTNMDPVDTATYYCARGVPAYSHGGDLWGQGTLVTVSSASTKGPSVFPLAPSSKSTSGGTAALGCLVKDYFPEPVTVSWNSGALTSGVHTFPAVLQSSGLYSLSSVVTVPSSSLGTQTYICNVNHKPSNTKVDKKVEPKSCDKTHTCPPCPAPELLGYPSVFLFPPKPKDTLMISRTPEVTCVVVDVSDEDPEVKFNWYVDGVEVHNAKTKPREEQYNSTYRVVSVLTVLHQDWLNGKEYKCKVSNKALPKPIEKTISKAKGQPREPQVYTLPPSREEMTKNQVSLTCLVKGFYPSDIAVEWESNGQPENNYKTTPKVLDSDGSFFLYSKLTVDKSRWQQGNVFSCSVMHEALHNHYTQKSLSLSP light: DIVMTQSPATLSLSPGERATLSCTSSQSVYHANWLSWFQQKPGQPPKLLIYWASTLAYGVPSRFSGSGSGTDFTLTISSLQPEDAATYYCAGGYGGGRYAFGQGTKVEIKRTVAAPSVFIFPPSDEQLKSGTASVVCLLNNFYPREAKVQWKVDNALQSGNSQESVTEQDSKDSTYSLSSTLTLSKADYEKHKVYACEVTHQGLSSPVTKSFNRGEC
0.04	M103205H795-MY228/M103202L889-SK1 (antibody, human IgG1, kappa) heavy: QVTLKESGPVLVKPTETLTLTCTVSGIDLSHDDISWVRQAPGKGLEWVGIISYAGSTYYASWAKGRLTISKDTSKNQVVLTMTNMDPVDTATYYCARGVPAYSHGGDLWGQGTLVTVSSASTKGPSVFPLAPSSKSTSGGTAALGCLVKDYFPEPVTVSWNSGALTSGVHTFPAVLQSSGLYSLSSVVTVPSSSLGTQTYICNVNHKPSNTKVDKKVEPKSCDKTHTCPPCPAPELLGYPSVFLFPPKPKDTLMISRTPEVTCVVVDVSDEDPEVKFNWYVDGVEVHNAKTKPREELYNSTYRVVSVLTVLHQDWLNGKEYKCKVSNKALPKPIEKTISKAKGQPREPQVYTLPPSREEMTKNQVSLTCLVKGFYPSDIAVEWESNGQPENNYKTTPPVLDSDGSFFLYSKLTVDKSRWQQGNVFSCSVMHEALHNHYTQKSLSLSP light: DIVMTQSPATLSLSPGERATLSCTSSQSVYHANWLSWFQQKPGQPPKLLIYWASTLAYGVPSRFSGSGSGTDFTLTISSLQPEDAATYYCAGGYGGGRYAFGQGTKVEIKRTVAAPSVFIFPPSDEQLKSGTASVVCLLNNFYPREAKVQWKVDNALQSGNSQESVTEQDSKDSTYSLSSTLTLSKADYEKHKVYACEVTHQGLSSPVTKSFNRGEC

— patent US20200317768A1 (published 2020)
